Source: US20110045003A1 (SYNOVEX, published 2011)

Biological target: T1, recombinant Cad-11 EC1 human IgG1 fusion protein (R&D Systems Cat. No. 1790-CA-050) (human, UniProt P55287 54-617, limits assumed)
T1 construct: Bought protein; the catalogue product may hold more of the extracellular region; also called recombinant human Cad-11 EC1; recombinant human Cad-11 fusion protein; not shown: human IgG1 part of the bought fusion protein
T1 sequence: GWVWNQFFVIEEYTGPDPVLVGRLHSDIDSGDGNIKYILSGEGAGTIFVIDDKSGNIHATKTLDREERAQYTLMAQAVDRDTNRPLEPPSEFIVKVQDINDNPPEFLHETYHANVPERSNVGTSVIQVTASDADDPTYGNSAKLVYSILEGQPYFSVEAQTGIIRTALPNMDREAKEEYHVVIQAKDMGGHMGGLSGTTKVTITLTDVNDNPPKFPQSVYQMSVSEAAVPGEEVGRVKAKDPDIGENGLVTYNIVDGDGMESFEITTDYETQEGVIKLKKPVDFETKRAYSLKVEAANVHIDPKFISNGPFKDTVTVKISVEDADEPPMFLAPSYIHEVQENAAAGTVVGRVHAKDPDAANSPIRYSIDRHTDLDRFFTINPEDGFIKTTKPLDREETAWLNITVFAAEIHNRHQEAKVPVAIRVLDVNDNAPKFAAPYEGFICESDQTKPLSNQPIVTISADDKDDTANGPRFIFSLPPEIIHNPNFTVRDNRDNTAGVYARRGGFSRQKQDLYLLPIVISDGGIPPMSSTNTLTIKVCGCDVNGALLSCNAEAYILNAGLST
Test: competition ELISA on coated recombinant human Cad-11 EC1 fusion; competitor biotinylated SYN0012/H1M1 at 0.1 µg/ml
Method: The binding of the purified humanized composite variant antibodies (SDP011 to SDP151) to a recombinant Cad-11 EC1 human IgG1 fusion protein was assessed in a competition binding ELISA. A dilution series from 5 μg/ml to 0.0022 μg/ml of the humanized or control (SYN0012/H1M1) antibodies was premixed with a constant concentration of biotinylated murine anti-Cad-11 antibody, SYN0012/H1M1 (0.1 μg/ml, final concentration), before incubating for 1 hour at room temperature on a Nunc Immuno MaxiSorp 96 well flat bottom microtitre plate (Fisher Cat. No. DIS-971-030J) pre-coated with 0.25 μg/ml recombinant human Cad-11 EC1 (R&D Systems Cat. No. 1790-CA-050) diluted in PBS. The binding of the biotinylated mAb was detected with streptavidin-HRP (Sigma Cat. No. 55512) and tetramethylbenzidine (TMB) substrate (Invitrogen Cat. No. 00-2023).
The relative IC50 was calculated by dividing the value for the test antibody by that of SYN0012. Antibody expression levels given are for static cultures in T flasks. PI are calculated.

- relative IC50 (IC50 of the test antibody divided by that of SYN0012): 0.99 ratio (column head prints µg/mL)
B1: humanized anti-Cad-11 EC1 antibody SDP051 (Vκ1/VH5) (antibody, IgG4, V domains shown)
VH: EVQLVQSGAEVKKPGASVKVSCKASGYSFTGYFMNWVRQAPGQGLEWIGRINPYTGDTFYNQKFKGRVTITVDKSTSTAYMELSSLRSEDTAVYYCGRLGSRYWYFDVWGQGTTVTVSS
VL: DVLMTQTPLSSPVTLGQPASISCRSSQSIIHSNGNTYLEWYLQKPGQSPQLLIYKVSNRFSGVPDRFTGSGSGTDFTLKISRVEAEDVGVYYCFQGSHVPWTFGQGTKLEIK
notes: humanized IgG4 (S241P), kappa
